The target of assay [1] is target rabbit anti-LOS antibody. As to the kind of experiment: peptide ELISA, peptide coupled to NucleoLink strip, target antibody 0.4 ug/well. (In general: An ELISA detects its analyte on a solid surface through an enzyme-linked reagent.)
Assay [2] shares this target. As to the kind of experiment: capture ELISA, phage on coated antibody; OD over irrelevant rabbit antibody.

Ends that are not written are not given here.

With TLAHHKKPWILRGGGS (also: coupled via C-terminal carboxyl to NucleoLink strips) [synthetic peptide 5 … (control peptide from an unrelated clone) with C-terminal GGGS spacer], the Binding reactivity (OD405) in assay [1] is 0.33 OD405.
Still for that read-out and setting: the value for NMMNYIMDPRTHGGGS (also: coupled via C-terminal carboxyl to NucleoLink strips) [synthetic peptide 2 … with C-terminal GGGS spacer] was 2.52 OD405; that for NMMKYISPPIFLGGGS (also: coupled via C-terminal carboxyl to NucleoLink strips) [synthetic peptide 3 … with C-terminal GGGS spacer] was 1.11 OD405.
Take NMMRFTSQPPNNGGGS (also: coupled via C-terminal carboxyl to NucleoLink strips) [synthetic peptide 1 … with C-terminal GGGS spacer]: the Binding reactivity (OD405) in assay [1] came out at 0.4 OD405.
NMMRFTELSTPSGGGS (peptide, not shown: large carriers) [phage clone 2-15]: the Fold rise of ELISA value in assay [2] was determined as 1510 fold.
The molecule NMMRFTELSTPSGGGS (also: coupled via C-terminal carboxyl to NucleoLink strips) [synthetic peptide 4 … with C-terminal GGGS spacer] yielded a Binding reactivity (OD405) in assay [1] of 0.99 OD405.
